Data from patent US20170029530A1 (AbbVie / Abbott, published 2017).
Changes are numbered by the printed parent chain. Several values for one entry are separate records, joined by “and”; a condition that tells them apart may be missing. Identical values can stand only once.

T1: rat DPEP3 ECD with histidine tag (rat, UniProt Q5U2X4 36-459, limits assumed)
T1 construct: also called rDPEP3-His; ratDPEP3-His; not shown: histidine tag
T1 sequence: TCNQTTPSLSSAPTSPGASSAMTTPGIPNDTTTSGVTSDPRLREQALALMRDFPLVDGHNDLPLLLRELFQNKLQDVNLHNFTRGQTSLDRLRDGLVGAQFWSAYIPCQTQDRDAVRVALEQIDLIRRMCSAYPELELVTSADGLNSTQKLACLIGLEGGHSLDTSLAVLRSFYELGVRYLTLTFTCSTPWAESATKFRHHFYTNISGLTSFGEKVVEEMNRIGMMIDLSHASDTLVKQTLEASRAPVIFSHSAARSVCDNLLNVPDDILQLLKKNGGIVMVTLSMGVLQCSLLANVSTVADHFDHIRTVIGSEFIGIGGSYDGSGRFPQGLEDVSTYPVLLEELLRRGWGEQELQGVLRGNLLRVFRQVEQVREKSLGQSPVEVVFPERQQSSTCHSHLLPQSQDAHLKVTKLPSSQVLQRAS

T2: mDPEP3 (limits assumed)
T2 construct: also called mouse DPEP3-His; mouse DPEP3 ECD with histidine tag
T2 single chain: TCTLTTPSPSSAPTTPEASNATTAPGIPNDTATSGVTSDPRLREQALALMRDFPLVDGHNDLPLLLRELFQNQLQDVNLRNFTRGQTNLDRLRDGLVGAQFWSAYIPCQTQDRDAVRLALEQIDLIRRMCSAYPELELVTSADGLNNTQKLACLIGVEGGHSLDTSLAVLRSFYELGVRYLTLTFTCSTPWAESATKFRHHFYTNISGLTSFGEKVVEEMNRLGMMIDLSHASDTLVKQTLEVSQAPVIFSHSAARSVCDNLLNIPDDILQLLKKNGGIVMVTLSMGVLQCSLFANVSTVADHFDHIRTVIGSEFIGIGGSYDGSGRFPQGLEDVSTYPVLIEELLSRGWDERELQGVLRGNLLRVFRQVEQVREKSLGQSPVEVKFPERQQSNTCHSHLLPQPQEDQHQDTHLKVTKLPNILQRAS

T3: cDPEP3 (Macaca fascicularis, UniProt Q4R7M2)
T3 construct: extracellular domain; also called cynomolgus DPEP3-His; cynomolgus DPEP3 ECD with histidine tag
T3 sequence (single chain, looked up): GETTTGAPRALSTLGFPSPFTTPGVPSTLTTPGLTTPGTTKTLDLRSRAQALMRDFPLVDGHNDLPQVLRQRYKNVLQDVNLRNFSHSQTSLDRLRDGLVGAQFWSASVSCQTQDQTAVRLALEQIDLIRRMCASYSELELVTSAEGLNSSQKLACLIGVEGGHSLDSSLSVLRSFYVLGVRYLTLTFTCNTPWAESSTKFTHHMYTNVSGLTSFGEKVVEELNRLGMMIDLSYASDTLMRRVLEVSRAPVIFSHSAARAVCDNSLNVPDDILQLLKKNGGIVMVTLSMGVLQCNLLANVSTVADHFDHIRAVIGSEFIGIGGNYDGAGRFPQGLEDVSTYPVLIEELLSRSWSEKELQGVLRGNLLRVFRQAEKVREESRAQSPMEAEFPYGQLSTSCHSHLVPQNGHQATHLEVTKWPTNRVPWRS

T4: hDPEP3-ECD-His (human, UniProt Q9H4B8 36-463)
T4 construct: also called hDPEP3-His; monomeric hDPEP3-His antigen; not shown: histidine tag
T4 sequence: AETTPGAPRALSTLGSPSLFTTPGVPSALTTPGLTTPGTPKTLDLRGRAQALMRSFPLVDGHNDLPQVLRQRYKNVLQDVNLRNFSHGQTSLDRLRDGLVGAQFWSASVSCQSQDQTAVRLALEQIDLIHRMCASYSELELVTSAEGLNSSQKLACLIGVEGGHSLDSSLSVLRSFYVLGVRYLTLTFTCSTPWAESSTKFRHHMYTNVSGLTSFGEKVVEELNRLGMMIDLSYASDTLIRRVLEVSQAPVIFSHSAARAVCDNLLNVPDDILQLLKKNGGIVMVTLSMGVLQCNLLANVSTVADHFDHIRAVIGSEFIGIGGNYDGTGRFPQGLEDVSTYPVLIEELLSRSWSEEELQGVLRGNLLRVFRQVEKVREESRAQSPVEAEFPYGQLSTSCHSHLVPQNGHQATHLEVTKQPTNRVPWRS

B1: SC34.18 (antibody, mouse IgG2b, V domains shown)
VH: QVSLKESGPGILQPSQTLSLTCSFSGFSLSTSGMGVGWIRQPSGKGLEWLANIWWDDSIYYNTALKSRLTISKDTSKNQVFLKIASVDTADTATYSCARIESYYGNRAWFAYWGQGTLVTVSA
VL: DIVMTQSQKFMSTSVGDRVSITCKASQNVRTAVGWYQQKPGQSPKTLIYLASNRHTGVSDRFTGSGSGTDFTLTISNVQSEDLADYFCLQHWNYPWTFGGGTKLEIK
B2: SC34.21 (antibody, mouse IgG1, V domains shown)
VH: EVQLQQSGPELVKPGTSMKISCKASGYSFTGYTMNWVKQSHGKNLEWIGLIYPYNDDTRYNRKFKGKATLTVDKSSNTAYMELLSLTSVDSAVCYCARGSYGSPFFDVWGAGTTVTVSS
VL: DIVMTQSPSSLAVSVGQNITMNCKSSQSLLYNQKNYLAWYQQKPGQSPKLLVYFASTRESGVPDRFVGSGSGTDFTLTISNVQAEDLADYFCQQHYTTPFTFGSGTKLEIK
B3: SC34.26 (antibody, mouse IgG2b, V domains shown)
VH: QVQLQQPGAELVKPGASVTLSCKASGYTFTSYYIYWVKQRPGEGLEWIGEINPSNGGPNFNERFKNKATLTVDKSSSTAYMQLSSLTSEDSAVYYCTRGLLYYDYDRGFAYWGQGTLVTVSA
VL: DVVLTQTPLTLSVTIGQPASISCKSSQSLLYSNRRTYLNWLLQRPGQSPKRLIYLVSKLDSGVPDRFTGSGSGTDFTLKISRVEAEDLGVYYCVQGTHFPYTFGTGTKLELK
B4: SC34.38 (antibody, mouse IgG2b, V domains shown)
VH: B3 VH with I34M, P58A, Y94F
VL: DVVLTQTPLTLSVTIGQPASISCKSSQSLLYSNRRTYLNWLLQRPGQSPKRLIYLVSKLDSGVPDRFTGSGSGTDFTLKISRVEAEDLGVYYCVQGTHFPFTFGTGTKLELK
B5: SC34.53 mouse anti-hDPEP3 antibody (antibody, V domains shown)
VH: B3 VH with N52D, E62D
VL: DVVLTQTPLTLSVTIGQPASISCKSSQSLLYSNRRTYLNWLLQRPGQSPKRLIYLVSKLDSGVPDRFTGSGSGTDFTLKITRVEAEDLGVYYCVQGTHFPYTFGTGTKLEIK
notes: Mouse hybridoma antibody
B6: SC34.28 mouse anti-DPEP3 antibody (antibody, V domains shown)
VH: QVQLQQSGAELMKPGASVKISCKATGYTFSSYWIEWVKQRPGHGLEWIGEILPGSGNTYYNERFKDKATFTADTSSNTAYMQLSSLTSEDSAVYYCARRAAAYYSNPEWFAYWGQGTLVTVSA
VL: QIVLTQSPAIMSASLGERVTMTCTASSSVNSFYLHWYQQKPGSSPKLWIHSTSNLASGVPGRFSGSGSGTSYSLTISSMEAEDAATYYCHQYHRSPYTFGGGTKLEIK
notes: Mouse hybridoma antibody, the source of hSC34.28
B7: SC34.33 (antibody, mouse IgG1, V domains shown)
VH: B6 VH with G56D, N57K, A97T
VL: B6 VL

Key:
[1] = target: T1, rat DPEP3 ECD with histidine tag; assay: ELISA, coated antigen
[2] = target: T2, mDPEP3; assay: ELISA, coated antigen
[3] = target: T3, cDPEP3; assay: ELISA, coated antigen
[4] = target: T5, hDPEP2 ECD with histidine tag (human, UniProt Q9H4A9 33-463); assay: ELISA, coated antigen
T5 construct: also called hDPEP2-His; not shown: histidine tag

[5] = target: T4, hDPEP3-ECD-His; assay: BLI ForteBio RED, 200 nM hDPEP3-His, estimated grade
Method in brief: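 Antibodies were captured on anti-mouse Fc biosensors to 0.3-1 units, then exposed to hDPEP3-His for a 4 min association and a 3 min dissociation at 1000 rpm. A control mouse IgG response was subtracted, and KD was estimated qualitatively from the curves. Sensors were regenerated with 10 mM glycine, pH 1.7.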

T5 sequence (Q9H4A9 33-463): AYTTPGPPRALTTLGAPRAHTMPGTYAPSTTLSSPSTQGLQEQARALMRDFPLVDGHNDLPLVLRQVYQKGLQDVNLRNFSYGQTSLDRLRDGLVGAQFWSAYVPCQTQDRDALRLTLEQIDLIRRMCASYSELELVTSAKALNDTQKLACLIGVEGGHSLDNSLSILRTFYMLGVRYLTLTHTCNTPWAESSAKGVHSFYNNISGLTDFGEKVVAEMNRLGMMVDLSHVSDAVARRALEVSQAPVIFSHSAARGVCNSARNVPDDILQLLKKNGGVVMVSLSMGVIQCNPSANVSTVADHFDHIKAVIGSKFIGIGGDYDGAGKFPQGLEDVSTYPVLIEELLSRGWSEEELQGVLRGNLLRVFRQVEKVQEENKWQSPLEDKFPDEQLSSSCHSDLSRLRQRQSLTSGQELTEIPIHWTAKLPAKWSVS

Row | Binder | binding result [1] | binding result [2] | binding result [3] | binding result [4] | Kd [5]
1 | B1 | no binding (tested: 1 ug/mL) | no binding (tested: 1 ug/mL) | no binding (tested: 1 ug/mL) | no binding (tested: 1 ug/mL) | < 5 nM
2 | B2 | no binding (tested: 1 ug/mL) | no binding (tested: 1 ug/mL) | no binding (tested: 1 ug/mL) | no binding (tested: 1 ug/mL) | < 5 nM
3 | B3 | no binding (tested: 1 ug/mL) | no binding (tested: 1 ug/mL) | no binding (tested: 1 ug/mL) | no binding (tested: 1 ug/mL) | > 10 nM
4 | B4 | no binding (tested: 1 ug/mL) | no binding (tested: 1 ug/mL) | no binding (tested: 1 ug/mL) | no binding (tested: 1 ug/mL) | < 5 nM
5 | B5 | no binding (tested: 1 ug/mL) | no binding (tested: 1 ug/mL) | no binding (tested: 1 ug/mL) | no binding (tested: 1 ug/mL) | ≥ 5 nM and ≤ 10 nM
6 | B6 | no binding (tested: 1 ug/mL) | no binding (tested: 1 ug/mL) | no binding (tested: 1 ug/mL) | no binding (tested: 1 ug/mL) | ≥ 5 nM and ≤ 10 nM
7 | B7 | no binding (tested: 1 ug/mL) | no binding (tested: 1 ug/mL) | no binding (tested: 1 ug/mL) | no binding (tested: 1 ug/mL) | ≥ 5 nM and ≤ 10 nM
